Measured values from patent publication US20110135634A1, “METHODS OF INHIBITING INFECTION BY DIVERSE SUBTYPES OF DRUG-RESISTANT HIV-1” (priority 2007, published 2011).
“And” between values parts separate entries of the source, which are not always exact repeats. Equal values may be shown once. Read-outs that look alike come from different tables or passages of the source.

Key:
[1] = system: primary R5 HIV-1 isolates JR-FL and Case C 1/85 (CC1/85); assay: In vitro resistance selection and susceptibility testing on PBMC; format: cell-based; settings: p24 ELISA
Method: For susceptibility testing, viruses were cultured in vitro on stimulated PBMC. In the presence and absence of serially diluted drug, and the extent of viral replication was determined by p24 ELISA.

[2] = system: reporter viruses pseudotyped with HIV-1SF162 envelope (U87-CD4-CCR5 cells); assay: HIV-1 pseudovirus assay, SF162 envelope; format: cell-based
Description: A self-inactivating (SIN) vector was derived from the pNL4-3ΔEnv-luciferase vector (Dragic et al. 1996) by deleting 507 basepairs in the U3 region of the 3′ long terminal repeat (LTR) so as to remove the TATA box and transcription factor binding sites. The human cytomegalovirus promoter was inserted upstream of the luciferase (luc) gene to enable expression of luciferase following integration.
Reporter viruses pseudotyped with HIV-1JR-FL or HIV-1SF162 envelopes were generated by cotransfection of 293T cells with the SIN vector and the appropriate pcDNA env-expressing vector as previously described (Dragic et al. 1996). […] Cultures were incubated for 72 h at 37° C. in DMEM containing 10% fetal bovine serum, […] puromycin, 0.3 mg/mL geneticin, antibiotics, and 0.5% DMSO. Luciferase activity (relative light units or RLU) was measured using. BrightGlo reagent (Promega, Madison, Wis.) according to the manufacturer's instructions.
Experimental design and data analysis were based on the combination index (CI) method (Chou et al. 1991; Chou et al. 1984). […] The mutually exclusive CI formula was used for combinations of CCR5 inhibitors, while the mutually non-exclusive formula was utilized for combinations of inhibitors to distinct targets (Chou et al. 1991). Each test was conducted 4-12 times. Synergy, additivity and antagonism are indicated by CI<1, CI=1 and CI>1, respectively.

[3] = Phase 1b clinical trial: safety, PK, immunogenicity, tropism, susceptibility; format: in vivo, human; settings: HIV-infected subjects
Description: (§1) All patients were screened prior to the study for the presence of virus that utilizes only CCR5 as the entry coreceptor, i.e., CCR5-tropic virus.

[4] = target: T1, CCR5 on CEM.NKR-CCR5 cells (Homo sapiens, UniProt P51681); assay: Competition binding: inhibition of PRO 140-PE binding; settings: based on percent cells gated; 5 nM PRO 140-PE
T1 construct: host or cells: CEM.NKR-CCR5 (transduced human T cell leukemia line)
T1 sequence (P51681 whole entry): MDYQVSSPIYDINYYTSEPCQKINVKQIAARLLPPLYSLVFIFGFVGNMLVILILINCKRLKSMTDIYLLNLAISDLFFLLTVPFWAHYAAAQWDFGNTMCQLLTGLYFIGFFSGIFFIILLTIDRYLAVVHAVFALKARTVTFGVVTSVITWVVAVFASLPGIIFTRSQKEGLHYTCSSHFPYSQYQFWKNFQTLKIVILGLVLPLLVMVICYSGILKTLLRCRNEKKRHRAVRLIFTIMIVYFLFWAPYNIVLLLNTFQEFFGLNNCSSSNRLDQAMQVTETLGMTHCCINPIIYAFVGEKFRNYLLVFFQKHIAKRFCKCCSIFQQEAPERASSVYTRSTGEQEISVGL
Method: Azide was added to block CCR5 internalization during the assay.

[5] = system: reporter viruses pseudotyped with HIV-1JR-FL envelope (U87-CD4-CCR5 cells); assay: microbe, parasite or virus in culture; format: cell-based
[6] = system: CCR5 lymphocytes; format: in vivo, human
Method: Whole blood specimens were combined separately with the indicated phycoerythrin-labeled anti-CCR5 antibodies or with appropriate isotype-control antibodies. Erythocytes were lysed and leukocytes were stabilized using the ImmunoPrep Reagent System (Beckman Coulter), and the cells were analyzed on a TQ Prep™ flow cytometry workstation (Beckman Coulter). Data were expressed as the percent of CCR5 cells relative to all cells gated in the analysis.
For up to 60 days post-treatment, at the times indicated in FIG. 6, blood was collected and analyzed for CCR5 lymphocyte levels.
Background binding of isotype control antibodies was unchanged.

[7] = target: T1, CCR5 on CEM.NKR-CCR5 cells; assay: Competition binding: inhibition of 3H-UK-427,857 binding; settings: read-out: EC50, inhibition of 3H-UK-427,857 binding; 2 nM 3H-UK-427,857, CEM.NKR-CCR5 cells
Description: The cells were washed in PBSA and lysed with 0.5N HCl prior to scintillation counting using a Wallac 1410 instrument.

[8] = system: HIV-1 (CCR5-tropic virus); format: in vivo; settings: for Mean log10 HIV RNA change: Day 10 post-treatment
Description: The efficacy data collected during the study were changes in viral load and CD4 counts over time. The safety data collected during the study were serious adverse events (SAEs)/adverse events (AEs) and changes in laboratory parameters (hematology, chemistry), physical exam, viral tropism and ECGs over time.
as §1
The primary efficacy endpoint was the reduction in plasma HIV RNA level as measured by the Roche Amplicor™ Assay. The primary efficacy endpoint is the maximum change from baseline in viral load, defined as HIV-1 copies/ml, as measured by the Roche Amplicor™ Assay.

[9] = SF162, labelled 1st inhibitor with 2nd inhibitor PRO 140 (equimolar; 1:10 PRO 140 to nevirapine or zidovudine)
[10] = JRFL, labelled 1st inhibitor with 2nd inhibitor PRO 140 (equimolar; 1:10 PRO 140 to nevirapine or zidovudine)

B1: PRO 140: humanized IgG4,κ anti-CCR5 mAb being developed for HIV-1 therapy (antibody, chains of the INN, looked up, V domains shown)
VH: EVQLVESGGGLVKPGGSLRLSCAASGYTFSNYWIGWVRQAPGKGLEWIGDIYPGGNYIRNNEKFKDKTTLSADTSKNTAYLQMNSLKTEDTAVYYCGSSFGSNYVFAWFTYWGQGTLVTVSS
VL: DIVMTQSPLSLPVTPGEPASISCRSSQRLLSSYGHTYLHWYLQKPGQSPQLLIYEVSNRFSGVPDRFSGSGSGTDFTLKISRVEAEDVGVYYCSQSTHVPLTFGQGTKVEIK
In the case of B1, the “inhibition of SCH-D escape mutants” value [1] is reported as “efficiently inhibited”, the IC50 ([2]; HIV-1 envelope SF162, 1st inhibitor alone, read-out: IC50) is reported as 1.3 nM and the IC90 ([2]; HIV-1 envelope SF162, 1st inhibitor alone, read-out: IC90) is reported as 20 nM. The CI50 [2, 9] was 1.0 ± 0.27, the CI90 [2, 9] was 0.86 ± 0.33 and the “change in plasma RANTES (CCL5) chemokine levels” value [3] was “No change”. For the same molecule, the dose-limiting toxicity ([3]; 0.5-5.0 mg/kg) was “No dose-limiting toxicity”, the “treatment related SAEs” value ([3]; 0.5-5.0 mg/kg) was “No treatment related SAEs” and the tolerability ([3]; all study groups) was “well-tolerated”. It also gave an EC90 [4] of 17 nM, an IC50 ([5]; HIV-1 envelope JRFL, 1st inhibitor alone, read-out: IC50) of 2.2 nM and an IC90 ([5]; HIV-1 envelope JRFL, 1st inhibitor alone, read-out: IC90) of 28 nM. The CI50 [5, 10] was 1.2 ± 0.32, the CI90 [5, 10] was 0.90 ± 0.15 and the “overall number of CCR5 lymphocytes as measured by CTC5 binding” value ([6]; in vivo, 2 mg/kg) was “no decrease”. For the same molecule, the “time CCR5 lymphocytes effectively coated without cellular depletion” value ([6]; single 2 mg/kg dose) was “two weeks”, the “time cells remain partially coated” value ([6]; single 2 mg/kg dose) was > 4 weeks and the “time cells remain partially coated” value ([6]; single 5 mg/kg dose) was > 60 days. The EC50 [7] was 14 nM, the “individual reductions of viral load” value ([8]; 2.0 mg/kg and 5.0 mg/kg dose levels) was “up to 2.5 log10 and ≤ 99.7%” and the AUC viral load ([8]; 5 mg/kg) was “significantly decreased”. For the same molecule, the “Maximum decrease of viral load at any time” value ([8]; 5 mg/kg) was −1.8 log, the “Patients with <400 copies/mL (anytime)” value ([8]; 5 mg/kg) was 4/10 and the “Patients with >1 log decrease (anytime)” value ([8]; 5 mg/kg) was 10/10. For the same molecule, the “time of return of viral load to baseline” value ([8]; 5.0 mg/kg cohort) was “approximately 30 days”, the “time to suppression of mean viral load by 1.0 log10 (90%)” value ([8]; 5.0 mg/kg cohort) was “within four days” and the “time viral load persisted at or below the 1.0 log10 level of reduction” value ([8]; 5.0 mg/kg cohort) was “two to three weeks”. The “mean increase in CD4+ lymphocytes” value ([8]; 5 mg/kg, day 8) was 129 cells/μL, the Viral load decrease ([8]; 5 mg/kg, day 22) was −0.73 and the “Mean log10 HIV RNA change” value ([8]; 0.5 mg/kg) was −0.37 log10. For the same molecule, the “Mean log10 HIV RNA change” value ([8]; 2.0 mg/kg) was −1.04 log10, the “Mean log10 HIV RNA change” value ([8]; 5.0 mg/kg) was −1.70 log10 and the “response rate (percentage of patients with a ≧1 log10 decrease in HIV RNA at any time)” value ([8]; highest dose cohort) was 100%.
